In the supplement of paper PMC7877785:
± gives the uncertainty stated by the source.

Assay: self-splicing fitness, log relative to wild type (ln ratio); higher = more splicing; Tetrahymena group I intron in knt gene, E. coli kanamycin selection, DiMSum; sequences stand for … in CUCUCU…GGAGGGAAAAGUUAUCAGGCAUGCACCUGGUAGCUAGUCUUUAAACCAAUAGAUUGCAUCGGUUUAAAAGGCAAGACCGUCAAAUUGCGGGAAAGGGGUCAACAGCCGUUCAGUACCAAGUCUCAGGGGAAACUUUGAGAUGGCCUUGCAAAGGGUAUGGUAAUAAGCUGACGGACAUGGUCCUAACCACGCAGCCAAGUCCUAAGUCAACAGAUCUUCUGUUGAUAUGGAUGCAGUUCACAGACUAAAUGUCGGUCGGGGAAGAUGUAUUCUUCUCAUAAGAUAUAGUCGGACCUCUCCUUAAUGGGAGCUAGCGGAUGAAGUGAUGCAACACUGGAGCCGCUGGGAACUAAUUUGUAUGCGAAAGUAUAUUGAUUAGUUUUGGAGUACUCGUGGUCG
Outline: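 DiMSum derived fitness as the error-weighted combination of fold changes across replicates, kanamycin versus no kanamycin, normalised to wild type. E. coli BL21(DE3) held the library, which randomised all eight P1ex-region intron nucleotides within the knt kanamycin-resistance gene on pET-22b(+). Six replicate transformations grew overnight at 37°C or 30°C on LB agar with or without 25 μg/mL kanamycin, also containing 100 μg/mL carbenicillin, 50 μM IPTG and 0.2% rhamnose, and pooled colonies were amplicon-sequenced on an Illumina HiSeq 2500.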

Sequence | self-splicing fitness (ln) (30 °C) | self-splicing fitness (ln) (37 °C)
GAAUAGCAAUAUUACGGCCC | -0.303 ± 0.14 | 0.174 ± 0.21
GAAUAGCAAUAUUACGGGAC | -3.37 ± 0.31 | -2.53 ± 0.3
GAAUAGCAAUAUUACGGGCA | -1.19 ± 0.083 | -1.2 ± 0.085
GAAUAGCAAUAUUACGGGUC | -1.89 ± 0.21 | -2.68 ± 0.33
GAAUAGCAAUAUUACGGUGC | -2.18 ± 0.22 | -2.78 ± 0.27
GAAUAGCAAUAUUACGUAAA | -1.94 ± 0.13 | -2.03 ± 0.14
GAAUAGCAAUAUUACGUAGG | -3.4 ± 0.15 | -2.68 ± 0.2
GAAUAGCAAUAUUACGUAUG | -1.56 ± 0.12 | -1.04 ± 0.18
GAAUAGCAAUAUUACGUCUA | -1.12 ± 0.12 | -0.42 ± 0.13
GAAUAGCAAUAUUACGUGAC | -3.51 ± 0.28 | -1.43 ± 0.2
GAAUAGCAAUAUUACGUGGC | -3.67 ± 0.27 | -1.34 ± 0.17
GAAUAGCAAUAUUACGUUAC | -1.97 ± 0.13 | -1.6 ± 0.21
GACAAGCAAUAUUACGAACC | -1.06 ± 0.14 | -0.514 ± 0.17
GACAAGCAAUAUUACGAAUC | -2.49 ± 0.12 | -2.53 ± 0.16
GACAAGCAAUAUUACGACCA | -0.459 ± 0.12 | -0.806 ± 0.13
GACAAGCAAUAUUACGACGA | -0.615 ± 0.067 | 0.296 ± 0.095
GACAAGCAAUAUUACGACGC | 0.305 ± 0.1 | 0.643 ± 0.13
GACAAGCAAUAUUACGACGG | -3.3 ± 0.2 | -2.64 ± 0.17
GACAAGCAAUAUUACGACUG | -0.381 ± 0.056 | -0.0494 ± 0.092
GACAAGCAAUAUUACGAGGC | -2.4 ± 0.16 | -2.76 ± 0.32
GACAAGCAAUAUUACGAUAG | -2.76 ± 0.22 | -0.828 ± 0.12
GACAAGCAAUAUUACGCCGA | -1.19 ± 0.12 | -0.179 ± 0.14
GACAAGCAAUAUUACGCCGG | -2.63 ± 0.32 | -1.92 ± 0.28
GACAAGCAAUAUUACGCUUG | -4.51 ± 0.29 | -2.76 ± 0.27

Sequence | self-splicing fitness (ln) (30 °C) | self-splicing fitness (ln) (37 °C)
GACAAGCAAUAUUACGGCAA | -0.787 ± 0.075 | -0.384 ± 0.074
GACAAGCAAUAUUACGGCCU | -0.429 ± 0.082 | -0.314 ± 0.1
GACAAGCAAUAUUACGGGAG | -3.18 ± 0.11 | -1.52 ± 0.1
GACAAGCAAUAUUACGGUGU | -3.98 ± 0.13 | -1.9 ± 0.11
GACAAGCAAUAUUACGUAGC | -1.48 ± 0.069 | -0.611 ± 0.076
GACAAGCAAUAUUACGUAUU | -2.83 ± 0.1 | -1.66 ± 0.11
GACAAGCAAUAUUACGUCCU | -1.99 ± 0.27 | -0.755 ± 0.19
GACAAGCAAUAUUACGUCUC | -4.15 ± 0.27 | -1.18 ± 0.19
GACAAGCAAUAUUACGUGGA | -3.18 ± 0.16 | -1.42 ± 0.1
GACAAGCAAUAUUACGUUGU | -3.54 ± 0.12 | -2.81 ± 0.14
GACCAGCAAUAUUACGAAAU | -1.34 ± 0.093 | -0.476 ± 0.098
GACCAGCAAUAUUACGACUC | -0.264 ± 0.06 | 0.162 ± 0.077
GACCAGCAAUAUUACGAGAG | -3.61 ± 0.2 | -1.51 ± 0.13
GACCAGCAAUAUUACGAGCU | -2.91 ± 0.14 | -1.41 ± 0.15
GACCAGCAAUAUUACGAUAU | -0.781 ± 0.072 | -0.235 ± 0.086
GACCAGCAAUAUUACGCAGU | -1.56 ± 0.067 | -0.904 ± 0.09
GACCAGCAAUAUUACGCCAA | -2.99 ± 0.22 | -1.45 ± 0.15
GACCAGCAAUAUUACGCCCC | -1.35 ± 0.17 | -0.908 ± 0.17
GACCAGCAAUAUUACGCCGG | -2.59 ± 0.16 | -2.58 ± 0.29
GACCAGCAAUAUUACGCCUU | -0.277 ± 0.07 | 0.293 ± 0.087
GACCAGCAAUAUUACGCGAG | -1.37 ± 0.16 | -0.897 ± 0.13
GACCAGCAAUAUUACGCGAU | -2.28 ± 0.11 | -1.17 ± 0.093
GACCAGCAAUAUUACGCUGC | -3.73 ± 0.22 | -1.32 ± 0.15
